Blank lines part the entries; values can stand above or below the binder they belong to. Ends that are not written are not given here.
How the values were obtained:
[1] = target: T1, αv integrins (as found on HT1080 cells) (UniProt P06756 31-1048); assay: HT1080 cell adhesion to coated human ICAM-4Fc (5 ug/ml); value is for the MIXTURE of SEQ ID NO: 9, 10 and 11, each peptide 750 uM
T1 construct: whole, on cells; also called αv integrin ligand
Description: (§1) Human ICAM-4Fc was coated at a concentration of 5 μg/ml, peptides were used at 750 μM final concentration for each peptide, and each data point is the mean of two independent assays.
(§2) Cell adhesion assays were performed as described in Spring et al. 2001 (supra). Immulon4 96 well plates (Dynex Technologies, Billingshurst, United Kingdom) were coated with 1 μg/well goat-antihuman-Fc (Sigma, Poole, United Kingdom) for 24 hours at 4° C., washed three times with PBS and coated with an Fc fusion ICAM-4 protein for 18 hours at 4° C. before blocking with 0.4% BSA PBS for 2 hours at 22° C. Cells were labelled with 10 μg/ml 2′,7′-bis-(2-carboxyethyl)-5-(and-6-) carboxyfluorescein acetoxymethyl ester in assay buffer (IMEM, 2 mM EGTA, 10 μg/ml human ivIgG) for 15 minutes at 37° C. HT1080 cells were activated with 80 μM phorbol myristate acetate prior to both cells being washed with assay buffer containing 2 mM Mn²⁺. Cells, at 5×10⁴ cells per well, were added to the ICAM-4Fc-coated plates for 30 minutes at 37° C., prior to being given repeated washes in assay buffer and read on a fluorescence microplate reader (excitation 485 nm, emission 530 nm). The percentage of bound cells was calculated after each wash. Peptide inhibition was performed by incubating the cells with 500 μM peptide at 0° C. for 15 minutes ahead of their addition, still in the presence of 500 μM peptide to the ICAM-4Fc coated plates. In peptide inhibition studies the appropriate ICAM-4Fc coating concentration for each cell line was pre-determined by titration of ICAM-4Fc and the lowest concentration at which maximal binding was achieved was used to coat the plates

[2] = target: T1, αv integrins (as found on HT1080 cells); assay: HT1080 cell adhesion to coated human ICAM-4Fc (5 ug/ml), peptide 750 uM; competitor human ICAM-4Fc
Description: as §1, §2

[3] = target: T1, αv integrins (as found on HT1080 cells); assay: HT1080 cell adhesion to coated murine ICAM-4Fc (5 ug/ml), peptide 500 uM; competitor murine ICAM-4Fc
Description: FIG. 14. […] Murine ICAM-4Fc was coated at a concentration of 5 μg/ml, peptides were used at 500 μM final concentration for each peptide, and each data point is the mean of two independent assays.
as §2, with “plates.” for “plates. In peptide inhibition studies the appropriate ICAM-4Fc coating concentration for each cell line was pre-determined by titration of ICAM-4Fc and the lowest concentration at which maximal binding was achieved was used to coat the plates”

[4] = target: T1, αv integrins (as found on HT1080 cells); assay: HT1080 cell adhesion to coated human ICAM-4Fc (5 ug/ml); value is for the MIXTURE with control peptide SEQ ID NO: 13, each peptide 750 uM
Description: as §1, §2

[5] = target: T1, αv integrins (as found on HT1080 cells); assay: HT1080 cell adhesion to coated human ICAM-4Fc (7.5 ug/ml), peptide 500 uM; competitor human ICAM-4Fc
Description: FIG. 10. […] Human ICAM-4Fc was coated at a concentration of 7.5 μg/ml, peptides were used at 500 μM final concentration for each peptide, and each data point is the mean of three independent assays.
as §2, with “plates.” for “plates. In peptide inhibition studies the appropriate ICAM-4Fc coating concentration for each cell line was pre-determined by titration of ICAM-4Fc and the lowest concentration at which maximal binding was achieved was used to coat the plates”

αLβ2 integrin = target: T2, αLβ2 integrin (UniProt P20701 26-1170; P05107 23-769); assay: neutrophil adhesion to coated ICAM-4Fc with blocking integrin antibodies
T2 construct: whole, on cells; also called LFA-1; β2 integrins
Description: (§3) Utilising blocking β integrin subunit antibodies and our blocking ICAM-4 peptides (i.e., SEQ ID NOs: 9, 10, 11 and 13—see Example 1) in a microplate neutrophil adhesion assay. Neutrophils were purified from buffy coats (obtained from the National Blood Service, Bristol, UK) as described in Henderson et al. (1987, Biochem. J. 246: 325-329). Cell adhesion assays were performed as described in Example 1 above. […] Neutrophils were labelled with 10 μg/ml 2′,7′-bis-(2-carboxyethyl)-5-(and-6-)carboxyfluorescein acetoxymethyl ester (Sigma, Poole, UK) in assay buffer (Iscoves modified Eagle medium, 2 mM EGTA, 0.1% BSA for 15 minutes at 37° C. Neutrophils were washed with assay buffer containing 2 mM Mn²⁺. Neutrophils, at 5×10⁵ cells per well, were added to the ICAM-4Fc-coated plates for 10 minutes at 37° C., prior to being cyclically read on a fluorescence microplate reader (excitation 485 nm, emission 530 nm) and washed in assay buffer. The percentage of bound cells was calculated after each wash. Peptide and antibody inhibition was performed by incubating the cells with 500 μM peptide and 25 μg/ml antibody at 0° C. for 15 minutes before their addition to the ICAM-4 Fc coated plates. […]

αMβ2 integrin = αMβ2 integrin (UniProt P11215 17-1152; P05107 23-769); assay: as above
Description: as §3

T1 sequence (P06756 31-1048): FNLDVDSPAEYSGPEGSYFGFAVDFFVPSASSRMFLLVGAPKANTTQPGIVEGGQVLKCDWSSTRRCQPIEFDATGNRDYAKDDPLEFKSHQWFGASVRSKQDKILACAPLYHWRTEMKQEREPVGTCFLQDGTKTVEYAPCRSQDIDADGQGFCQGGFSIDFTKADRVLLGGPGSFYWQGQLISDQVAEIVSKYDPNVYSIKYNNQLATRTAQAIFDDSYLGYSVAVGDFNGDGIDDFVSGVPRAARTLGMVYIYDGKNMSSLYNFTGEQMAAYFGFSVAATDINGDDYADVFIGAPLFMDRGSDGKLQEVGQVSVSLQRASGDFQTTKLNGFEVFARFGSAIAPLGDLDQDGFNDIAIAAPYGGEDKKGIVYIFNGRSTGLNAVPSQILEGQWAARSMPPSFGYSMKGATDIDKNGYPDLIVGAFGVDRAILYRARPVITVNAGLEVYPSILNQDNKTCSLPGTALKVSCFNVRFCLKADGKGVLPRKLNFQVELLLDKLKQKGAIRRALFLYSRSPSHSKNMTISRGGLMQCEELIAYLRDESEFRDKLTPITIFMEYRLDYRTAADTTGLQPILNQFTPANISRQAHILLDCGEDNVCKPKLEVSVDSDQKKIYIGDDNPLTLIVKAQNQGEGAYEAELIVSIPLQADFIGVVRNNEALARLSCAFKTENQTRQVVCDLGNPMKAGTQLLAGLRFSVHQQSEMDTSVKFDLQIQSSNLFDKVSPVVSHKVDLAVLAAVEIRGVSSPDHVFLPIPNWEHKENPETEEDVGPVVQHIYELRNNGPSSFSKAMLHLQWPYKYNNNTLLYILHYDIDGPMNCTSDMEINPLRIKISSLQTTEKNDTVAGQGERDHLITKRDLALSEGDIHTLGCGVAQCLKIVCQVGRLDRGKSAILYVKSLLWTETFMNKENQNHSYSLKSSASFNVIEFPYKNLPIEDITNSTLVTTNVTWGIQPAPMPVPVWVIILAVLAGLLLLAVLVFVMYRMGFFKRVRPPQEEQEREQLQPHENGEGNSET

input cells bound as % of binding to ICAM-4Fc in the absence of peptides [1]: 52%
input cells bound as % of binding to ICAM-4Fc in the absence of peptides [2]: 41%
input cells bound as % of binding to murine ICAM-4Fc in the absence of peptides [3]: 60%
input cells bound as % of binding to ICAM-4Fc in the absence of peptides [4]: 40%
input cells bound as % of binding to ICAM-4Fc in the absence of peptides [5]: 46%
B1: svpFWVrms peptide (SEQ ID NO: 9) (peptide)
peptide: SVPFWVRMS
notes: Nine residues of the A strand of domain 1 of mature human ICAM-4, starting at S15; also called A strand peptide

input cells bound as % of binding to ICAM-4Fc in the absence of peptides [2]: 96%
input cells bound as % of binding to murine ICAM-4Fc in the absence of peptides [3]: 92%
input cells bound as % of binding to ICAM-4Fc in the absence of peptides [5]: 97%
B2: rqgktlrgp peptide (SEQ ID NO: 13) (peptide)
peptide: RQGKTLRGP
notes: Control peptide; nine residues of the D strand of domain 1 of mature human ICAM-4, starting at R56; also called D strand peptide

input cells bound as % of binding to ICAM-4Fc in the absence of peptides [1]: 52%
input cells bound as % of binding to ICAM-4Fc in the absence of peptides [2]: 71%
input cells bound as % of binding to ICAM-4Fc in the absence of peptides [4]: 64%
B3: aWssLahcl peptide (SEQ ID NO: 11) (peptide)
peptide: AWSSLAHCL
notes: Nine residues of the F strand of domain 1 of mature human ICAM-4, starting at A76; also called F strand peptide

binding result (αLβ2 integrin): binds
binding result (αMβ2 integrin): binds
B4: human ICAM-4Fc (Fc fusion)
chain: AQSPKGSPLAPSGTSVPFWVRMSPEFVAVQPGKSVQLNCSNSCPQPQNSSLRTPLRQGKTLRGPGWVSYQLLDVRAWSSLAHCLVTCAGKTRWATSRITAYKPPHSVILEPPVLKGRKYTLRCHVTQVFPVGYLVVTLRHGSRVIYSESLERFTGLDLANVTLTYEFAAGPRDFWQPVICHARLNLDGLVVRNSSAPITLMLAWSPAPTA
notes: Expressed in COS-7 cells, purified on protein A; also called Fc fusion ICAM-4 protein; wild-type ICAM-4Fc; not shown: Fc part from the pIg vector

input cells bound as % of binding to ICAM-4Fc in the absence of peptides [1]: 52%
input cells bound as % of binding to ICAM-4Fc in the absence of peptides [2]: 42%
input cells bound as % of binding to murine ICAM-4Fc in the absence of peptides [3]: 80%
input cells bound as % of binding to ICAM-4Fc in the absence of peptides [4]: 39%
input cells bound as % of binding to ICAM-4Fc in the absence of peptides [5]: 60%
B5: tRwATSRit peptide (SEQ ID NO: 10) (peptide)
peptide: TRWATSRIT
modifications: not fully specified (residues 1, 3, 8, 9)
notes: Nine residues of the G strand of domain 1 of mature human ICAM-4, starting at T91; also called G strand peptide
